US20200079847A1 (H LUNDBECK A S, published 2020)
Like-named read-outs stand apart in the source and are kept apart here. Each block holds one binder with its values, some of them ahead of it.

Tests used:
[1] = target: T1, Vasoactive Intestinal Peptide (VIP) (human); experiment: competitive HTRF: unlabelled VIP (10x) against biotinylated PACAP38 (35 nM) for the titrated antibody
T1 construct: also called human VIP
T1 peptide: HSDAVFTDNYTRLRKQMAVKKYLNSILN
Description: In parallel, 10 μl of an antibody dilution series (highest final concentration of 100 nM) were incubated with 10 μl of N-terminal or C-terminal biotinylated PACAP38 (35 nM final) alone, or in combination with either PACAP27 (350 nM final) or VIP (350 nM final), i.e., 10× PACAP27 or 10×VIP, respectively, in a HTRF plate. 20 μl of Eu³⁺ cryptate labeled anti-hu Fc donor and 20 μl of d2-labeled streptavidin acceptor were added to each well and incubated for 1 hour at room temperature. Fluorescence was measured at 620 and 665 nm with a delay of […].

[2] = target: T2, Pituitary Adenylate Cyclase-Activating Polypeptide 27 (PACAP27) (Homo sapiens, C-terminal leucine is amidated); experiment: SPR, antibody immobilized
T2 peptide: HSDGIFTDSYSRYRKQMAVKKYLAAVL
Description: (§1) Binding affinities of monoclonal antibodies for human PACAP were estimated using SPR on the PROTEON™ XPR36 (Bio-Rad, Hercules, Calif.). Antibody was immobilized to the surface of general amine coupling (“GLC” or “GLM”) Chips (Bio-Rad, Hercules, Calif.). […] Antigen (ranging from 1.23 nM to 100 nM) was typically run sequentially with association times of 2-4 minutes and dissociation times of 3-120 minutes grouped with the PROTEON™ Manager Software (v3.1.0.6 (Bio-Rad, Hercules, Calif.)) and fitted using a 1:1 Langmuir binding model.

[3] = target: T3, Pituitary Adenylate Cyclase-Activating Polypeptide 38 (PACAP38) (Homo sapiens, C-terminal lysine is amidated); experiment: DELFIA TRF cell-surface binding: antibody pre-incubated with PACAP38, complex added to PAC1-R-expressing PC-12 cells, Eu anti-human IgG detection; PACAP38 held on the cell surface is the target
T3 construct: unlabeled peptide in SPR; also called human PACAP; huPACAP (1-38)
T3 peptide: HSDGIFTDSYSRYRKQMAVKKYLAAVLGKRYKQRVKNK

[4] = target: T3, Pituitary Adenylate Cyclase-Activating …; experiment: cell-based or functional assay
[5] = target: T2, Pituitary Adenylate Cyclase-Activating …; experiment: cell-based or functional assay
[6] = target: T3, Pituitary Adenylate Cyclase-Activating …; experiment: cell-based or functional assay
[7] = target: T3, Pituitary Adenylate Cyclase-Activating …; experiment: cell-based or functional assay
[8] = target: T3, Pituitary Adenylate Cyclase-Activating …; experiment: SPR, antibody immobilized
Description: as §1

[9] = target: T3, Pituitary Adenylate Cyclase-Activating …; experiment: DELFIA TRF cell-surface binding: antibody pre-incubated with PACAP38, complex added to PAC1-R-expressing PC-12 cells, Eu anti-human IgG detection; PACAP38 held on the cell surface is the target
[10] = target: T3, Pituitary Adenylate Cyclase-Activating …; experiment: as above
[11] = target: T3, Pituitary Adenylate Cyclase-Activating …; experiment: as above

B2: Ab1 (antibody, human IgG1, kappa, N297A, V domains shown)
VH: QSVEESGGRLVTPGTPLTLTCTVSGFSLSSAVMNWVRQAPGKGLEWIGSIVASGTTYYASWANGRFTISKTSSTTMDLKMTSPTTEDTATYFCARGGGEFFIWGPGTLVTVSS
VL: DPVMTQTPSSTSAAVGGTVTISCQSSESVYSNYLSWYQQKPGQPPNFLIYQASNLASGVPSRFKGSGSGTQFTLTITDLECDDAATYYCAGGYSENIVGFGGGTEVVVKR
notes: full-length antibody, rabbit variable regions on human constant regions
Kd [2]: ≤ 0.01 nM

B3: Ab5.H (antibody, V domains shown)
VH: EVQLVESGGGLVQPGGSLRLSCAASGFSLSSYAMIWVRQAPGKGLEWVGIIYDNGDTYYASSAKGRFTISRDNSKNTVYLQMNSLRAEDTAVYFCAREPGSTTQNDLWGQGTLVTVSS
VL: DVQMTQSPSTLSASVGDRVTITCQASENIYNSLLWYQQKPGKAPKLLIYRASTLASGVPSRFSGSGSGTEFTLTISSLQPDDFATYYCQNYYNIWTNGAAFGGGTKVEIKR
EC50 (read off the curve) [3]: ~3 nM

B4: Ab10.H (antibody, V domains shown)
VH: EVQLVESGGGLVQPGGSLRLSCAASGIDLNSYYMTWVRQAPGKGLEWIGFIDAGGDAYYASWAKGRFTISRDNSKNTVYLQMNSLRAEDTAVYFCARDLDLWGQGTLVTVSS
VL: DAQLTQSPSTLSASVGDRVTITCQSSESVYGNYLAWFQQKPGKAPKFLIYEASKLESGVPSRFSGSGSGTEFTLTISSLQPDDFATYYCAGGDISEGVAFGGGTKVEIKR
IC50, 0.1 nM PACAP38-induced PAC1-R mediated cAMP increase [4]: 0.163 nM
IC50, 0.1 nM PACAP27-induced PAC1-R mediated cAMP increase [5]: 0.084 nM
IC50, 1 nM PACAP38-induced human VPAC2-R mediated cAMP increase [6]: 0.988 nM
IC50, 5 nM PACAP38-induced human VPAC1-R mediated cAMP increase [7]: 1.34 nM

B6: Ab4.H (antibody, V domains shown)
VH: EVQLVESGGGLVQPGGSLRLSCAASGFSLSSYDMSWVRQAPGKGLEWIGIINTNDDTWYASWVKGRFTISRDNSKNTLYLQMNSLRAEDTAVYYCARISDAYVFDYAYYFTLWGQGTLVTVSS
VL: DIQMTQSPSTLSASVGDRVTITCLASQNIYNSLAWYQQKPGKAPKLLIYRASTLASGVPSRFSGSGSGTEFTLTISSLQPDDFATYYCQQGAGADNIGNPFGGGTKVEIKR
EC50 (read off the curve) [10]: ~4 nM
Kd [2]: 0.031 nM
koff [2]: 1e-05 s⁻¹

B7: Ab3.H (antibody, V domains shown)
VH: EVQLVESGGGLVQPGGSLRLSCAASGFSFSSSDYMCWVRQAPGKGLEWIGCIDAGSSGDTYFASSAKGRFTISRDNSKNTVYLQMNSLRAEDTAVYFCARHLYGSITFAFGLWGQGTLVTVSS
VL: AAQMTQSPSTLSASVGDRVTITCQASQSIGSDLAWYQQKPGKAPKLLIYDASTLASGVPSRFSGSGSGTEFTLTISSLQPDDFATYYCQGTYYSSGWYTAFGGGTKVEIKR
EC50 (read off the curve) [11]: ~3 nM

More lines, now with the values ahead:

binding result [1]: no binding
B1: Ab9 (antibody, human IgG1, kappa, N297A, V domains shown)
VH: EQSGGGAEGGLVKPGGSLKLSCKASGFTISRDYWICWVRQAPGKGLEWIGCISAGGGSTDYANWVNGRFTLSRDIDQSTGCLQLNSLTDADTAMYYCAGNLEIWGQGTLVTVSS
VL: AQVLTQTPSSVSAAVGGTVTINCQSSPSIYSGAFLSWFQQKPGQPPKFLIYEASKLASGVPSRFSGSGSGTQFTLTISDVQCDDAATYYCLGFYDCSSVDCHAFGGGTEVVVKR
notes: as for B2

Kd [8]: 0.026 nM
koff [8]: 1e-05 s⁻¹
EC50 (read off the curve) [9]: ~3 nM
B5: Ab12.H (antibody, V domains shown)
VH: EVQLVESGGGLVQPGGSLRLSCAASGFSLSSYAMGWVRQAPGKGLEWIGDISTYGTTDYASWVYGRFTISRDNSKNTVYLQMNSLRAEDTAVYFCARDYWLSLWGQGTLVTVSS
VL: AAQLTQSPSTLSASVGDRVTITCQSSQSVYDNNALAWYQQKPGKAPKLLIYAASTLASGVPSRFSGSGSGTEFTLTISSLQPDDFATYYCLGGYYDPADNAFGGGTKVEIKR

binding result [1]: no binding
B8: Ab3 (antibody, human IgG1, kappa, N297A, V domains shown)
VH: QEQLVESGGGLVQPEGSLTLTCTASGFSFSSSDYMCWVRQAPGKGLEWIGCIDAGSSGDTYFASWAKGRFTISKTSSTTVTLQMTSLTAADTATYFCARHLYGSITFAFGLWGQGTLVTVSS
VL: AAVLTQTPSPVSAAVGGTVTINCQASQSIGSDLAWYQQKPGQPPKLLIYDASTLASGVPSRFSGSGSGTQFTLTISGVQCDDAATYYCQGTYYSSGWYTAFGGGTEVVVKR
notes: as for B2
